Measured values reported in US20200362021A1 (PHANES THERAPEUTICS, published 2020).
Numbering of substitutions follows the chain as printed. No end group written: not given here. *: point of attachment. Biotin = O=C1N[C@H]2[C@H](CS[C@H]2CCCCC(=O)*)N1

T1: Biotin-APL17
T1 peptide: Biotin-KFRRQRPRLSHKGPMPF

T2: APL17-Biotin
T2 peptide: KFRRQRPRLSHKGPMPF-biotin

T3: pyr-apelin-13-biotin (pE-RPRLSHKGPMPF-biotin) (N-terminal pyroglutamate (pE); C-terminal biotin)
T3 construct: also called pyrAPL13-Biotin
T3 peptide: ERPRLSHKGPMPF

B1: anti-apelin mAb C4 (antibody, V domains shown)
VH: LEQSGGGAEGGLVKPGGSLELCCKASGFTLSSSYWICWVRQAPGKGLEWIGCIHYGSSGTAYYASWVNGRFTLSRDIDQSTGCLQLNSLTAADTAMYYCARFLSDMYYYNLWGPGTLVTVSS
VL: QVLTQTPASVSAAVGGTVTINCQASQSIYNNNQLSWYQQKPGQPPKLLIYYASTLASGVSSRFKGSGSGTQFTLTISGVQCDDAATYYCQGQFNCRSADCHAFGGGTEVVVK
notes: recombinant rabbit IgG made in HEK293 cells
B2: anti-apelin mAb C9 (antibody, V domains shown)
VH: QEQLEESGGDLVKPEGSLTLTCTASGFSFSSSYWICWVRQAPGKGLEWIACIYQSGDGRTWYASWAEGRFTISKTSPTTVTLQMASLTAADTATYFCARCPHNTYSHFDLWGPSTLVTVSS
VL: DIVMTQTPASVEAAVGGTVTIKCQASQSINSWLSWYQQKPGQPPKPLIYGASNLASGVPSRFKGSGSGTQFTLTISDLECADAATYSCLGYYYSSYNSVGFWAFGGGTEVVVK
notes: as for B1
B3: anti-apelin mAb C10 (antibody, V domains shown)
VH: QSLEESGGRLVTPGGSLTLTCTVSGIDLNSYAIDWVRQAPGKGLEWIGVIAPSGTTYYPTWAKGRFTISKTSTTVDLKVTGLTTEDTATYFCAAYPIDPGSNIWGPGTLVTVSS
VL: DPVLTQTPSSVSAAVGGTATIGCQSSESVDYGNQLSWYQQKPGQPPKRLAYYVSILDAGVPSRFKGSGSGTQFTLTISDLECDDAATYYCQGGYISNLYPFGGGTEVVVQ
notes: as for B1
B4: anti-apelin mAb C12 (antibody, V domains shown)
VH: QSLEESGGRLVTPGGSLTLTCTVSGIDLSSYAIDWVRQAPGKGLEWIGVIAPSSTTYYPTWAKGRFTISKTSSTTVDLKVIGLTTEDTATYFCAAYPIDPGSNVWGPGTLVTVSS
VL: B3 VL with A19V, A50T
notes: as for B1
B5: anti-apelin mAb C11 (antibody, V domains shown)
VH: QSLEESGGRLVSPGGSLTLTCTVSGIDLSSHAMDWVRQAPGKGLEWIGVIAPNDATYYPTWARGRFTISKTSTTVGLKMTRLTTEDTATYFCAAYPIDAGANVWGPGTLVTVSS
VL: DPMLTQTASPVSAHVGGTVTINCQSSESVDYNNQLSWYQQKPGQPPKRLMYYVSTLDSGVPSRFKGSGSGTQFSLTISDLECDDAGTYYCQGGYISNLYPFGGGTEVVVK
notes: as for B1
B6: anti-apelin mAb C16 (antibody, V domains shown)
VH: QSLEESGGRLVTPGGSLTLTCTVSGIDLNSYAMDWVRQAPGKGLEWIGVIAPNHYTYYPTWARGRFTISKTSTTVDLKMTRLTTEDTATYFCATYPIESGSNIWGPGTLVIVSS
VL: B5 VL with M3V, A8P, P10S, H14A, N22G, D30G, Y31M
notes: as for B1
B7: anti-apelin mAb C20 (antibody, V domains shown)
VH: B6 VH with S30N, M33I, Y57C, R81S, T94A, S99T
VL: B5 VL with A8P, P10S, H14A, N22S, Y31M, T71I, Q72H, D83A
notes: as for B1
B8: anti-apelin mAb C14 (antibody, V domains shown)
VH: B5 VH with L3P, S12T, T22K, V23I, I26V, S30N, H31Y, F66L, G76D, A99V
VL: B5 VL with H14A
notes: as for B1
B9: anti-apelin mAb C22 (antibody, V domains shown)
VH: B6 VH with S30N, R81S, S99T
VL: DPVLTQTPSSVSAAVGGTVTISCQSSESVDMNNQLSWYHQKSGQPPKRLMYYVSTLDSGVPSRFKGSGSGTQFTLTISGVQCDDAGTYYCQGGYISNLYPFGGGTEVVVK
notes: as for B1

What follows are binders tested against T4, biotin-apelin-13 (biotin-…) (N-terminal biotin) (assay: SPR (Biacore), biotin-apelin-13 on streptavidin CM5 chip, mAb at 12.5-100 nM).
T4 construct: also called Biotin-APL13
Protocol: (§1) Anti-apelin mAbs at four different concentrations (12.5 nM, 25 nM, 50 nM and 100 nM) were captured on the chip surface. The on- and off-rate for antibody-antigen binding were measured, curve fitted and calculated.

Row | Binder | Kd [nM]
1 | B1 | 4.01
2 | B2 | 14.8

These binders were tested against T5, apelin-13-biotin (…-biotin) (C-terminal biotin) (assay: SPR (Biacore), apelin-13-biotin on streptavidin chip).
T5 construct: also called APL13-Biotin
Protocol: as §1

Row | Binder | Kd [nM]
3 | B3 | 0.00646
4 | B4 | 0.00355
5 | B5 | 0.0393
6 | B6 | 14.3
7 | B7 | 0.202
8 | B8 | 0.141
9 | B9 | 0.107

Target: T1, Biotin-APL17
Experiment: ELISA, peptide on neutravidin plate, mAb 200 ng/ml, A405
Protocol: (§2) FIGS. 1A-1C show binding of anti-apelin mAbs to various biotinylated apelin peptides measured by ELISA. Biotinylated apelin peptides were immobilized on ELISA plates coated with neutravidin and purified recombinant rabbit anti-apelin mAbs were added for binding to the peptides on the plates. The binding was detected by adding a goat anti-rabbit IgG Fc-conjugated to alkaline phosphatase and PNPP substrate, and measured as the absorbance at 405 nm.
(§3) For the binding assay, neutravidin in carbonate coating buffer was coated on high binding ELISA plates at 1 μg/ml overnight. Peptides were added at 4 μg/ml after the plates were blocked with 1% BSA in TBS. After incubation of the plates at room temperature for 60 minutes, the plates were washed and then purified recombinant rabbit antibodies were added at 200 ng/ml. Following rabbit antibody binding to the peptides on the plates at room temperature for 90 minutes, goat anti-rabbit IgG Fc-conjugated to alkaline phosphatase was added, and antibody-antigen binding was detected by adding PNPP substrate and reading absorbance of ELISA plates at 405 nm. Each mAb was assayed in duplicate.

Row | Binder | binding result
10 | B1 | binds
11 | B2 | binds
12 | B3 | no binding (tested: 200 ng/ml)
13 | B4 | no binding (tested: 200 ng/ml)
14 | B5 | binds
15 | B6 | no binding (tested: 200 ng/ml)
16 | B8 | binds
17 | B9 | binds

Target: T2, APL17-Biotin
Experiment: as above
Protocol: as §2, §3

Row | Binder | binding result
18 | B1 | binds
19 | B2 | binds
20 | B3 | no binding (tested: 200 ng/ml)
21 | B4 | no binding (tested: 200 ng/ml)
22 | B5 | binds
23 | B6 | no binding (tested: 200 ng/ml)
24 | B8 | binds
25 | B9 | binds

Target: T3, pyr-apelin-13-biotin …
Experiment: SPR (Biacore), pyr-apelin-13-biotin on streptavidin chip
Protocol: as §1

Row | Binder | Kd [pM]
26 | B3 | 0.0482
27 | B4 | 0.0555
28 | B5 | 0.141
29 | B6 | 6140
30 | B7 | 41.9
31 | B8 | 6.49
32 | B9 | 0.155
